PMC3675491 (Nucleic Acids Research, 2013)

Assays:
[1] = molecular target: T1, His6-σ^HrdB σ2 fragment (amino acids 211–347) (S. coelicolor, UniProt P18183 211-347); test: […]
T1 sequence: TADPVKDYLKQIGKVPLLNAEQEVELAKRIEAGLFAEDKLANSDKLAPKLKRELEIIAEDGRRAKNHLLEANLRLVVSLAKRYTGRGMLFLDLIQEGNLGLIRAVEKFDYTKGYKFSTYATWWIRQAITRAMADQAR

[2] = molecular target: T2, His6-σ^HrdB σ2–σ4 fragment (amino acids 211–511) (S. coelicolor, UniProt P18183 211-511); test: […]
T2 sequence: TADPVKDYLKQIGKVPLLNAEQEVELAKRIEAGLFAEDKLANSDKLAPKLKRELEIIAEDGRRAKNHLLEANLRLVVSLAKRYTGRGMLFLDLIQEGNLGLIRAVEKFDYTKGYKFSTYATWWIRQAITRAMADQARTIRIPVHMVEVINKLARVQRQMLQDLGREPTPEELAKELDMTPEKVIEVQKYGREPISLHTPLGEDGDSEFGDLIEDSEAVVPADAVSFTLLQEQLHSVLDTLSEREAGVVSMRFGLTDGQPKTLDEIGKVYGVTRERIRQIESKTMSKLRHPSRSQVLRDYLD

[3] = molecular target: T3, σ^HrdB (purified protein, 55.9 kDa) (S. coelicolor, UniProt P18183 1-511); test: SEC
T3 sequence: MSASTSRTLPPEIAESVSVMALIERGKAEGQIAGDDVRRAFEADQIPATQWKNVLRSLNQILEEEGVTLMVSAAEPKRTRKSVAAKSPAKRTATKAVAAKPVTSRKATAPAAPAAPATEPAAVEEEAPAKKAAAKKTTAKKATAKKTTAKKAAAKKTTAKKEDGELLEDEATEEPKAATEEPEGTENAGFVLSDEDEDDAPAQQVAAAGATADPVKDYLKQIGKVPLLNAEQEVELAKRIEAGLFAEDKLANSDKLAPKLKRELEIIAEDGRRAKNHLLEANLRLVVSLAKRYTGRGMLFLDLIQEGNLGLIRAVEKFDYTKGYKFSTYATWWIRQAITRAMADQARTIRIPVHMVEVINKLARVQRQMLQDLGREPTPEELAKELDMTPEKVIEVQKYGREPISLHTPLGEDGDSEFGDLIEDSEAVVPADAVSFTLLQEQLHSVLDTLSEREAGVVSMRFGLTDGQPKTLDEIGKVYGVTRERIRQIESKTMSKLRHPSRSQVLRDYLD

[4] = molecular target: the molecule itself; test: SEC

B1: RbpA^Sc (native, untagged purified protein, 14.1 kDa) (natural protein)
chain: MSERALRGTRLVVTSYETDRGIDLAPRQAVEYACEKGHRFEMPFSVEAEIPPEWECKVCGAQALLVDGDGPEEKKAKPARTHWDMLMERRTREELEEVLEERLAVLRSGAMNIAVHPRDSRKSA
binding result [1]: binds | binding result [2]: binds | binding result [3]: binds | stoichiometry N [4]: 2
